Here are results for 94 variants from the supplement of paper PMC10567573.

Sequences and labels used below:
B1: TOR1AIP2 (parent)
chain: HHVADAYTSSQKVSPIQIDGAGRT
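Note: lentivirally expressed fusions sorted by FACS into six bins by GFP to DsRed ratio, PSI derived from sequencing read proportions per bin multiplied by bin number.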

In this data set the parent is B1. Description: protein stability index of a GFP-peptide fusion (GPS, HEK-293T) (PSI 1-6); higher = more stable. Conditions: c terminus: a fixed tail appended.
Take HHVADQYTSSQKVSPIQIDGAGRT [A6Q]: the protein stability index was 4.32.
As for HHVQDAYTSSQKVSPIQIDGAGRT [A4Q], the figure is 3.67; as for HHVCDAYTSSQKVSPIQIDGAGRT [A4C], 2.84; as for HHVPDAYTSSQKVSPIQIDGAGRT [A4P], 2.34.
For HHVNDAYTSSQKVSPIQIDGAGRT [A4N] the value was 4.17; for HHVDDAYTSSQKVSPIQIDGAGRT [A4D], 4.76; for HHVFDAYTSSQKVSPIQIDGAGRT [A4F], 3.42.
For HHVHDAYTSSQKVSPIQIDGAGRT [A4H] the value was 3.43; for HHVTDAYTSSQKVSPIQIDGAGRT [A4T], 2.27; for HHVKDAYTSSQKVSPIQIDGAGRT [A4K], 3.86.
In the case of HHVYDAYTSSQKVSPIQIDGAGRT [A4Y], the protein stability index turned out to be 4.04.
As for HHVVDAYTSSQKVSPIQIDGAGRT [A4V], the figure is 3.39; as for HHVMDAYTSSQKVSPIQIDGAGRT [A4M], 4.01; as for HHVEDAYTSSQKVSPIQIDGAGRT [A4E], 4.43.
For the variant HHVWDAYTSSQKVSPIQIDGAGRT [A4W], the protein stability index amounted to 3.57.
For the variant HHVSDAYTSSQKVSPIQIDGAGRT [A4S], the protein stability index was found to be 3.84.
As for HHVGDAYTSSQKVSPIQIDGAGRT [A4G], the figure is 4.25.
As for HHVLDAYTSSQKVSPIQIDGAGRT [A4L], the figure is 3.99; as for HHVIDAYTSSQKVSPIQIDGAGRT [A4I], 3.01.
As for HHVRDAYTSSQKVSPIQIDGAGRT [A4R], the figure is 3.95; as for HHVADAYTSSEKVSPIQIDGAGRT [Q11E], 3.97.
As to HHVADAYTSSRKVSPIQIDGAGRT [Q11R], the protein stability index is 2.95.
Consider HHVADAYTSSPKVSPIQIDGAGRT [Q11P], for which the protein stability index was determined as 3.74.
For HHVADAYTSSDKVSPIQIDGAGRT [Q11D] the value was 4.26.
As to HHVADAYTSSKKVSPIQIDGAGRT [Q11K], the protein stability index worked out at 3.56.
As for HHVADAYTSSLKVSPIQIDGAGRT [Q11L], the figure is 3.27.
As for HHVADAYTSSHKVSPIQIDGAGRT [Q11H], the figure is 3; as for HHVADAYTSSWKVSPIQIDGAGRT [Q11W], 2.21.
For HHVADAYTSSGKVSPIQIDGAGRT [Q11G] the value was 3.66; for HHVADAYTSSCKVSPIQIDGAGRT [Q11C], 3.06; for HHVADAYTSSMKVSPIQIDGAGRT [Q11M], 3.15.
As to HHVADAYTSSNKVSPIQIDGAGRT [Q11N], the protein stability index was 3.29.
As for HHVADAYTSSSKVSPIQIDGAGRT [Q11S], the figure is 3.44.
As for HHVADAYTSSIKVSPIQIDGAGRT [Q11I], the figure is 3; as for HHVADAYTSSVKVSPIQIDGAGRT [Q11V], 2.89; as for HHVADAYTSSTKVSPIQIDGAGRT [Q11T], 3.6.
Take HHVADAYTSSYKVSPIQIDGAGRT [Q11Y]: the protein stability index is 2.96.
For HHVADAYTSSAKVSPIQIDGAGRT [Q11A] the value was 3.23; for HHVADAYTSSFKVSPIQIDGAGRT [Q11F], 2.65.
In the case of HHVADAYYSSQKVSPIQIDGAGRT [T8Y], the protein stability index came to 3.45.
On to HHVADAYHSSQKVSPIQIDGAGRT [T8H], for which the protein stability index came to 4.14.
As to HHVADAYASSQKVSPIQIDGAGRT [T8A], the protein stability index was 4.09.
With HHVADAYWSSQKVSPIQIDGAGRT [T8W], the protein stability index was found to be 2.86.
As for HHVADAYDSSQKVSPIQIDGAGRT [T8D], the figure is 4.66; as for HHVADAYPSSQKVSPIQIDGAGRT [T8P], 4.38.
Take HHVADAYQSSQKVSPIQIDGAGRT [T8Q]: the protein stability index was found to be 3.85.
As for HHVADAYFSSQKVSPIQIDGAGRT [T8F], the figure is 3.27.
HHVADAYNSSQKVSPIQIDGAGRT [T8N]: the protein stability index is 3.88.
For HHVADAYGSSQKVSPIQIDGAGRT [T8G] the value was 3.87; for HHVADAYISSQKVSPIQIDGAGRT [T8I], 2.82.
HHVADAYMSSQKVSPIQIDGAGRT [T8M]: the protein stability index came out at 3.89.
As for HHVADAYESSQKVSPIQIDGAGRT [T8E], the figure is 4.38; as for HHVADAYSSSQKVSPIQIDGAGRT [T8S], 3.69; as for HHVADAYVSSQKVSPIQIDGAGRT [T8V], 3.3.
For HHVADAYKSSQKVSPIQIDGAGRT [T8K] the value was 3.49.
Regarding HHVADAYLSSQKVSPIQIDGAGRT [T8L], the protein stability index turned out to be 4.14.
For HHVADAYRSSQKVSPIQIDGAGRT [T8R] the value was 3.49.
As for HHVADAYCSSQKVSPIQIDGAGRT [T8C], the figure is 2.78.
Take HHSADAYTSSQKVSPIQIDGAGRT [V3S]: the protein stability index worked out at 2.46.
As to HHKADAYTSSQKVSPIQIDGAGRT [V3K], the protein stability index was 3.19.
As for HHIADAYTSSQKVSPIQIDGAGRT [V3I], the figure is 4.2; as for HHLADAYTSSQKVSPIQIDGAGRT [V3L], 3.77; as for HHYADAYTSSQKVSPIQIDGAGRT [V3Y], 1.51.
For HHQADAYTSSQKVSPIQIDGAGRT [V3Q] the value was 2.63; for HHWADAYTSSQKVSPIQIDGAGRT [V3W], 2.42.
For HHTADAYTSSQKVSPIQIDGAGRT [V3T] the value was 3.1; for HHNADAYTSSQKVSPIQIDGAGRT [V3N], 2.04; for HHRADAYTSSQKVSPIQIDGAGRT [V3R], 2.95.
Take HHMADAYTSSQKVSPIQIDGAGRT [V3M]: the protein stability index came to 2.92.
For HHPADAYTSSQKVSPIQIDGAGRT [V3P] the value was 4.2; for HHVADAYTSSQKASPIQIDGAGRT [V13A], 3.27; for HHVADAYTSSQKDSPIQIDGAGRT [V13D], 4.
As for HHVADAYTSSQKFSPIQIDGAGRT [V13F], the figure is 3.21; as for HHVADAYTSSQKESPIQIDGAGRT [V13E], 3.96.
On to HHVADAYTSSQKCSPIQIDGAGRT [V13C], for which the protein stability index came out at 2.92.
For HHVADAMTSSQKVSPIQIDGAGRT [Y7M] the value was 4.7.
For HHVADANTSSQKVSPIQIDGAGRT [Y7N] the value was 4.89; for HHVADAFTSSQKVSPIQIDGAGRT [Y7F], 2.73; for HHVADATTSSQKVSPIQIDGAGRT [Y7T], 4.98.
As for HHVADASTSSQKVSPIQIDGAGRT [Y7S], the figure is 4.87.
HHVADAHTSSQKVSPIQIDGAGRT [Y7H]: the protein stability index is 4.84.
As for HHVADARTSSQKVSPIQIDGAGRT [Y7R], the protein stability index was 4.43.
As for HHVADADTSSQKVSPIQIDGAGRT [Y7D], the protein stability index amounted to 4.67.
For HHVADAVTSSQKVSPIQIDGAGRT [Y7V] the value was 4.62; for HHVADALTSSQKVSPIQIDGAGRT [Y7L], 4.55.
For HHVADAWTSSQKVSPIQIDGAGRT [Y7W] the value was 2.12.
As for HHVADAPTSSQKVSPIQIDGAGRT [Y7P], the figure is 4.91.
As to HHVADACTSSQKVSPIQIDGAGRT [Y7C], the protein stability index was determined as 4.19.
For HHVADAQTSSQKVSPIQIDGAGRT [Y7Q] the value was 4.5; for HHVADAETSSQKVSPIQIDGAGRT [Y7E], 4.97.
As for HHVADAGTSSQKVSPIQIDGAGRT [Y7G], the figure is 4.6; as for HHVADAITSSQKVSPIQIDGAGRT [Y7I], 4.75; as for HHVADAKTSSQKVSPIQIDGAGRT [Y7K], 4.65.
Consider HHVADAATSSQKVSPIQIDGAGRT [Y7A], for which the protein stability index is 5.04.
